Experimental data from patent US20200325179A1 (EUROPEAN MOLECULAR BIOLOGY LABORATORY, published 2020).
Positions count from the first letter of the chain named. Ends that are not written are not given here.

Assays:
[1] = target: T1, ADDomer with one cysteine mutation Q476C (synthetic penton base protomer based on …); assay: non-reducing SDS-PAGE and blot; biotinylated peptide detected with Alexa488 avidin, ADDomer with a specific antibody and a Cy3 secondary antibody; covalent disulfide
T1 construct: Virus-like particle: 12 pentamers of 5 engineered penton base protomers each; also called Cys-ADDomer; Cys modified ADDomer
T1 chain: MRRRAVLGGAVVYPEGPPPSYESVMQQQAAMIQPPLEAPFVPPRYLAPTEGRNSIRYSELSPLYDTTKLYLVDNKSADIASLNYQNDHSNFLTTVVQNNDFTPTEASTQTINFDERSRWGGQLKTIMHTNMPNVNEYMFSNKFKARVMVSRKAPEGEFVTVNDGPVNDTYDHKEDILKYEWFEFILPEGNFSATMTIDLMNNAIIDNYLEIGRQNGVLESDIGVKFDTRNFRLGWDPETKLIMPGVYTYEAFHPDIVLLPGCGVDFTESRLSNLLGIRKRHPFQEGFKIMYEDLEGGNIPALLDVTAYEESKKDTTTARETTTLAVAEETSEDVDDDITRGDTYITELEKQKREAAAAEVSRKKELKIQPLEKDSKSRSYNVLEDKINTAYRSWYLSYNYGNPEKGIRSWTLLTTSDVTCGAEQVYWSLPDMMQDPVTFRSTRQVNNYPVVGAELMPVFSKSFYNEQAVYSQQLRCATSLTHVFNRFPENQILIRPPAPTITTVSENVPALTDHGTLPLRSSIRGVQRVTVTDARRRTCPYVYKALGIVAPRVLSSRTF
Procedure: (§1) FIG. 14: Covalent coupling of “STICKER” peptide to ADDomer containing targeted cystein mutations. Wild-type ADDomer (wt) and ADDomer with one cysteine mutation (K363C, Q476C or A477C, respectively) were incubated with STICKER peptides (C20 (SEQ ID NO: 77) and C9 (SEQ ID NO: 75), respectively). SDS-PAGE analysis was performed under reducing (+bMeSH) and non-reducing (−bMeSH) conditions and transferred to a PVDF membrane. ADDomer (dark grey) and STICKER peptide (light grey) were visualized by binding of labelled antibody and Avidin binding, respectively, evidencing STICKER binding to cysteine-mutant ADDomer by specific disulfide bond formation (marked by white circle in lower panel)
(§2) To widen the ADDomer potential, a system enabling the addition of extra epitopes at the ADDomer was developed. Single cysteines were inserted at specific locationd of the ADDomer sequence (either K363C or Q476C or A477C). […] Complexes were run on SDS-PAGE and ADDomer was detected by a specific antibody and a secondary antibody labelled with Cy3 while the biotinylated peptide was detected by Alexa488 labeled avidin. When the right Cys-ADDomer/peptide was used, the presence of peptide was detected at the ADDomer band size (circle in FIG. 14). […]

[2] = target: T2, ADDomer with one cysteine mutation A477C (synthetic penton base protomer based on …); assay: as above
T2 construct: Virus-like particle: 12 pentamers of 5 engineered penton base protomers each; also called Cys-ADDomer; Cys modified ADDomer
T2 chain: T1 chain with C476Q, A477C
Procedure: as §1, §2

AKRARLSTCFNPVYPYEDES (also: biotinylated (position not given here), Detected by Alexa488 labelled avidin) [STICKER peptide C9 (fibre protein fragment, Cys at position 9)]: binds [1]; binds [2].
